Data taken from the supplement of paper PMC9112550, “Optimization of the antimicrobial peptide Bac7 by deep mutational scanning” (BMC Biology, 2022).

Tested on: Escherichia coli TOP10
Test: shrunken log2 fold change of peptide-encoding DNA abundance (4.5 h post-induction vs induction); higher = less antimicrobial activity (less host growth inhibition)
Details: time post-induction: 4.5 h; library: site-saturation at positions 5, 18, 19, 20
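Further: peptides expressed intracellularly from a pBAD plasmid library in pooled LB shake-flask culture, induced with 0.3% L-arabinose, DNA abundance read by NGS, three biological replicates, DESeq2 with apeglm shrinkage.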

RRIRNRPPRLPRPRPRPLQCPRP
shrunken log2 fold change: -0.00595

RRIRNRPPRLPRPRPRPLQLPRP
shrunken log2 fold change: -0.288

RRIRNRPPRLPRPRPRPLRRPRP
shrunken log2 fold change: 2.43

RRIRNRPPRLPRPRPRPLTRPRP
shrunken log2 fold change: 0.0454

RRIRNRPPRLPRPRPRPLTTPRP
shrunken log2 fold change: -0.07

RRIRNRPPRLPRPRPRPLVSPRP
shrunken log2 fold change: -0.185

RRIRNRPPRLPRPRPRPLVWPRP
shrunken log2 fold change: 0.124

RRIRNRPPRLPRPRPRPLYDPRP
shrunken log2 fold change: -0.0765

RRIRNRPPRLPRPRPRPMAGPRP
shrunken log2 fold change: 0.0481

RRIRNRPPRLPRPRPRPMAVPRP
shrunken log2 fold change: -0.0402

RRIRNRPPRLPRPRPRPMDGPRP
shrunken log2 fold change: -0.261

RRIRNRPPRLPRPRPRPMESPRP
shrunken log2 fold change: -0.0333

RRIRNRPPRLPRPRPRPMGGPRP
shrunken log2 fold change: 0.0264

RRIRNRPPRLPRPRPRPMHAPRP
shrunken log2 fold change: 0.0438

RRIRNRPPRLPRPRPRPMHQPRP
shrunken log2 fold change: -0.19

RRIRNRPPRLPRPRPRPMKGPRP
shrunken log2 fold change: -0.0787

RRIRNRPPRLPRPRPRPMKLPRP
shrunken log2 fold change: -0.282

RRIRNRPPRLPRPRPRPMMFPRP
shrunken log2 fold change: -0.0478

RRIRNRPPRLPRPRPRPMMIPRP
shrunken log2 fold change: -0.0237

RRIRNRPPRLPRPRPRPMQKPRP
shrunken log2 fold change: 0.0161

RRIRNRPPRLPRPRPRPMQPPRP
shrunken log2 fold change: -0.000687

RRIRNRPPRLPRPRPRPMRKPRP
shrunken log2 fold change: 0.481

RRIRNRPPRLPRPRPRPMRMPRP
shrunken log2 fold change: -0.00372

RRIRNRPPRLPRPRPRPMRVPRP
shrunken log2 fold change: 0.161

RRIRNRPPRLPRPRPRPMRYPRP
shrunken log2 fold change: -0.154

RRIRNRPPRLPRPRPRPMSAPRP
shrunken log2 fold change: 0.0853

RRIRNRPPRLPRPRPRPMSWPRP
shrunken log2 fold change: -0.549

RRIRNRPPRLPRPRPRPMVAPRP
shrunken log2 fold change: 0.0624

RRIRNRPPRLPRPRPRPMVGPRP
shrunken log2 fold change: -0.0679

RRIRNRPPRLPRPRPRPMVPPRP
shrunken log2 fold change: 0.0885

RRIRNRPPRLPRPRPRPNAGPRP
shrunken log2 fold change: -0.0954

RRIRNRPPRLPRPRPRPNAVPRP
shrunken log2 fold change: 0.266

RRIRNRPPRLPRPRPRPNCKPRP
shrunken log2 fold change: -0.424

RRIRNRPPRLPRPRPRPNDAPRP
shrunken log2 fold change: -0.221

RRIRNRPPRLPRPRPRPNDIPRP
shrunken log2 fold change: -0.418

RRIRNRPPRLPRPRPRPNDLPRP
shrunken log2 fold change: -0.0167

RRIRNRPPRLPRPRPRPNDTPRP
shrunken log2 fold change: -0.236

RRIRNRPPRLPRPRPRPNEGPRP
shrunken log2 fold change: 0.000589

RRIRNRPPRLPRPRPRPNGCPRP
shrunken log2 fold change: -0.0605

RRIRNRPPRLPRPRPRPNGLPRP
shrunken log2 fold change: 0.00468

RRIRNRPPRLPRPRPRPNGVPRP
shrunken log2 fold change: -0.0397

RRIRNRPPRLPRPRPRPNHPPRP
shrunken log2 fold change: -0.318

RRIRNRPPRLPRPRPRPNIPPRP
shrunken log2 fold change: -0.24

RRIRNRPPRLPRPRPRPNKAPRP
shrunken log2 fold change: -0.000622

RRIRNRPPRLPRPRPRPNKDPRP
shrunken log2 fold change: -0.0478

RRIRNRPPRLPRPRPRPNLNPRP
shrunken log2 fold change: -0.557

RRIRNRPPRLPRPRPRPNNDPRP
shrunken log2 fold change: -0.934

RRIRNRPPRLPRPRPRPNNLPRP
shrunken log2 fold change: -0.202

RRIRNRPPRLPRPRPRPNQIPRP
shrunken log2 fold change: -0.319

RRIRNRPPRLPRPRPRPNRCPRP
shrunken log2 fold change: -0.0238

RRIRNRPPRLPRPRPRPNRVPRP
shrunken log2 fold change: -0.0281

RRIRNRPPRLPRPRPRPNSFPRP
shrunken log2 fold change: -0.00469

RRIRNRPPRLPRPRPRPNSSPRP
shrunken log2 fold change: -0.219

RRIRNRPPRLPRPRPRPNWHPRP
shrunken log2 fold change: -0.111

RRIRNRPPRLPRPRPRPNWIPRP
shrunken log2 fold change: -0.0612

RRIRNRPPRLPRPRPRPNYCPRP
shrunken log2 fold change: 0.0133

RRIRNRPPRLPRPRPRPPAMPRP
shrunken log2 fold change: 0.124

RRIRNRPPRLPRPRPRPPEMPRP
shrunken log2 fold change: 0.0979

RRIRNRPPRLPRPRPRPPEYPRP
shrunken log2 fold change: -0.932

RRIRNRPPRLPRPRPRPPFDPRP
shrunken log2 fold change: 0.141

RRIRNRPPRLPRPRPRPPFHPRP
shrunken log2 fold change: -0.17

RRIRNRPPRLPRPRPRPPGAPRP
shrunken log2 fold change: 0.665

RRIRNRPPRLPRPRPRPPGCPRP
shrunken log2 fold change: 0.109

RRIRNRPPRLPRPRPRPPGFPRP
shrunken log2 fold change: 1.54

RRIRNRPPRLPRPRPRPPHRPRP
shrunken log2 fold change: 0.00305

RRIRNRPPRLPRPRPRPPKFPRP
shrunken log2 fold change: -0.0082

RRIRNRPPRLPRPRPRPPKSPRP
shrunken log2 fold change: 0.338

RRIRNRPPRLPRPRPRPPLIPRP
shrunken log2 fold change: -0.193

RRIRNRPPRLPRPRPRPPMKPRP
shrunken log2 fold change: -0.216

RRIRNRPPRLPRPRPRPPNCPRP
shrunken log2 fold change: 0.00301

RRIRNRPPRLPRPRPRPPNSPRP
shrunken log2 fold change: -0.072

RRIRNRPPRLPRPRPRPPNTPRP
shrunken log2 fold change: -0.0466

RRIRNRPPRLPRPRPRPPPNPRP
shrunken log2 fold change: 1.04

RRIRNRPPRLPRPRPRPPPQPRP
shrunken log2 fold change: 0.931

RRIRNRPPRLPRPRPRPPPWPRP
shrunken log2 fold change: 0.591

RRIRNRPPRLPRPRPRPPQAPRP
shrunken log2 fold change: 0.0708

RRIRNRPPRLPRPRPRPPRQPRP
shrunken log2 fold change: 0.449

RRIRNRPPRLPRPRPRPPRSPRP
shrunken log2 fold change: 0.446

RRIRNRPPRLPRPRPRPPSSPRP
shrunken log2 fold change: -0.0814

RRIRNRPPRLPRPRPRPPTFPRP
shrunken log2 fold change: 0.145

RRIRNRPPRLPRPRPRPPTKPRP
shrunken log2 fold change: 0.46

RRIRNRPPRLPRPRPRPPVEPRP
shrunken log2 fold change: 0.272

RRIRNRPPRLPRPRPRPPWCPRP
shrunken log2 fold change: 0.108

RRIRNRPPRLPRPRPRPPWDPRP
shrunken log2 fold change: 0.144

RRIRNRPPRLPRPRPRPQDAPRP
shrunken log2 fold change: -0.131

RRIRNRPPRLPRPRPRPQDDPRP
shrunken log2 fold change: 0.00776

RRIRNRPPRLPRPRPRPQDHPRP
shrunken log2 fold change: -0.33

RRIRNRPPRLPRPRPRPQFDPRP
shrunken log2 fold change: 0.152

RRIRNRPPRLPRPRPRPQFLPRP
shrunken log2 fold change: 0.106

RRIRNRPPRLPRPRPRPQFTPRP
shrunken log2 fold change: -0.259

RRIRNRPPRLPRPRPRPQGWPRP
shrunken log2 fold change: 0.114

RRIRNRPPRLPRPRPRPQHHPRP
shrunken log2 fold change: -0.432

RRIRNRPPRLPRPRPRPQHTPRP
shrunken log2 fold change: -0.402

RRIRNRPPRLPRPRPRPQITPRP
shrunken log2 fold change: -1.07

RRIRNRPPRLPRPRPRPQKPPRP
shrunken log2 fold change: 0.0646

RRIRNRPPRLPRPRPRPQLCPRP
shrunken log2 fold change: -0.00259

RRIRNRPPRLPRPRPRPQMGPRP
shrunken log2 fold change: 0.102

RRIRNRPPRLPRPRPRPQQGPRP
shrunken log2 fold change: -0.159

RRIRNRPPRLPRPRPRPQQIPRP
shrunken log2 fold change: -0.23

RRIRNRPPRLPRPRPRPQRLPRP
shrunken log2 fold change: 0.0491

RRIRNRPPRLPRPRPRPQSGPRP
shrunken log2 fold change: 0.0495

RRIRNRPPRLPRPRPRPQTEPRP
shrunken log2 fold change: -0.219

RRIRNRPPRLPRPRPRPQTQPRP
shrunken log2 fold change: 0.153

RRIRNRPPRLPRPRPRPQVDPRP
shrunken log2 fold change: -0.706

RRIRNRPPRLPRPRPRPQVPPRP
shrunken log2 fold change: 0.0184

RRIRNRPPRLPRPRPRPQWNPRP
shrunken log2 fold change: -0.319

RRIRNRPPRLPRPRPRPQYQPRP
shrunken log2 fold change: -0.317

RRIRNRPPRLPRPRPRPRAIPRP
shrunken log2 fold change: 0.064

RRIRNRPPRLPRPRPRPRCFPRP
shrunken log2 fold change: -0.404

RRIRNRPPRLPRPRPRPRCNPRP
shrunken log2 fold change: -0.0207

RRIRNRPPRLPRPRPRPRCQPRP
shrunken log2 fold change: 0.297

RRIRNRPPRLPRPRPRPREPPRP
shrunken log2 fold change: 0.697

RRIRNRPPRLPRPRPRPREWPRP
shrunken log2 fold change: -0.00528

RRIRNRPPRLPRPRPRPRHAPRP
shrunken log2 fold change: 0.0219

RRIRNRPPRLPRPRPRPRIQPRP
shrunken log2 fold change: 0.0619

RRIRNRPPRLPRPRPRPRIVPRP
shrunken log2 fold change: -0.191

RRIRNRPPRLPRPRPRPRKHPRP
shrunken log2 fold change: -0.194

RRIRNRPPRLPRPRPRPRKIPRP
shrunken log2 fold change: 0.39

RRIRNRPPRLPRPRPRPRKSPRP
shrunken log2 fold change: 0.132

RRIRNRPPRLPRPRPRPRKYPRP
shrunken log2 fold change: -0.258

RRIRNRPPRLPRPRPRPRLAPRP
shrunken log2 fold change: 0.404

RRIRNRPPRLPRPRPRPRLFPRP
shrunken log2 fold change: 0.0322

RRIRNRPPRLPRPRPRPRLQPRP
shrunken log2 fold change: 0.0236

RRIRNRPPRLPRPRPRPRMNPRP
shrunken log2 fold change: 0.00678

RRIRNRPPRLPRPRPRPRNIPRP
shrunken log2 fold change: -0.168

RRIRNRPPRLPRPRPRPRNLPRP
shrunken log2 fold change: -0.0378

RRIRNRPPRLPRPRPRPRNPPRP
shrunken log2 fold change: 0.0944

RRIRNRPPRLPRPRPRPRNTPRP
shrunken log2 fold change: -0.505

RRIRNRPPRLPRPRPRPRPIPRP
shrunken log2 fold change: 0.333

RRIRNRPPRLPRPRPRPRPRPRP
shrunken log2 fold change: 0.586

RRIRNRPPRLPRPRPRPRQAPRP
shrunken log2 fold change: 0.0453

RRIRNRPPRLPRPRPRPRQEPRP
shrunken log2 fold change: 0.00772

RRIRNRPPRLPRPRPRPRQYPRP
shrunken log2 fold change: 0.0612

RRIRNRPPRLPRPRPRPRRVPRP
shrunken log2 fold change: 0.551

RRIRNRPPRLPRPRPRPRSHPRP
shrunken log2 fold change: -0.127

RRIRNRPPRLPRPRPRPRTDPRP
shrunken log2 fold change: 0.089

RRIRNRPPRLPRPRPRPRTQPRP
shrunken log2 fold change: 0.11

RRIRNRPPRLPRPRPRPRVGPRP
shrunken log2 fold change: 0.0576

RRIRNRPPRLPRPRPRPRVRPRP
shrunken log2 fold change: 0.212

RRIRNRPPRLPRPRPRPRWNPRP
shrunken log2 fold change: -0.297

RRIRNRPPRLPRPRPRPRWYPRP
shrunken log2 fold change: -0.194

RRIRNRPPRLPRPRPRPSADPRP
shrunken log2 fold change: 0.212

RRIRNRPPRLPRPRPRPSAPPRP
shrunken log2 fold change: 0.0188

RRIRNRPPRLPRPRPRPSCGPRP
shrunken log2 fold change: -0.178

RRIRNRPPRLPRPRPRPSCIPRP
shrunken log2 fold change: -0.507

RRIRNRPPRLPRPRPRPSCVPRP
shrunken log2 fold change: -0.599

RRIRNRPPRLPRPRPRPSEDPRP
shrunken log2 fold change: -0.145

RRIRNRPPRLPRPRPRPSFCPRP
shrunken log2 fold change: -0.548

RRIRNRPPRLPRPRPRPSFKPRP
shrunken log2 fold change: -0.25

RRIRNRPPRLPRPRPRPSIWPRP
shrunken log2 fold change: -0.474
